In US20210107983A1 (Boehringer Ingelheim, published 2021):

Columns and labels:
[1] = target: T1, Fc-His-tagged human B7H6 ECD (human); test: ELISA, plate coated with Fc-His-tagged human B7H6 ECD, anti-human IgG F(ab')2-peroxidase, TMB
T1 construct: also called huB7H6-ECD-Fc-His; recombinant human B7H6 ECD
Description: To assess binding of B7H6/CD3 binding proteins to recombinant human Fc-His-tagged B7H6 ECD and human Fc-His-tagged Ala-mutated B7H6 extracellular proteins as described in Example 3, MediSorp™ plates (Nunc, 467320) were coated with […] recombinant proteins overnight at 4° C. The next day, plates were blocked with 0.5% bovine serum albumin (BSA) in phosphate buffered saline (PBS) for 1 hour at room temperature (RT). Subsequently plates were washed with […] containing 0.05% TWEEN®20 viscous liquid and B7H6/CD3 binding proteins were incubated at concentrations ranging from 0.00001 to 10 μg/ml. After an additional washing step, bound B7H6/CD3 binding proteins were detected by a peroxidase conjugated goat anti-human IgG F(ab′)₂-specific secondary antibody (Jackson Immunoresearch) and visualized by TMB substrate solution (Bender Med Systems).

[2] = target: T2, human B7H6 on HCT-15 cells (human, UniProt Q68D85 25-454); test: flow cytometry on HCT-15 cells, PE anti-human secondary antibody
T2 construct: whole, on cells; also called B7H6-positive HCT-15 cells
T2 sequence (looked up): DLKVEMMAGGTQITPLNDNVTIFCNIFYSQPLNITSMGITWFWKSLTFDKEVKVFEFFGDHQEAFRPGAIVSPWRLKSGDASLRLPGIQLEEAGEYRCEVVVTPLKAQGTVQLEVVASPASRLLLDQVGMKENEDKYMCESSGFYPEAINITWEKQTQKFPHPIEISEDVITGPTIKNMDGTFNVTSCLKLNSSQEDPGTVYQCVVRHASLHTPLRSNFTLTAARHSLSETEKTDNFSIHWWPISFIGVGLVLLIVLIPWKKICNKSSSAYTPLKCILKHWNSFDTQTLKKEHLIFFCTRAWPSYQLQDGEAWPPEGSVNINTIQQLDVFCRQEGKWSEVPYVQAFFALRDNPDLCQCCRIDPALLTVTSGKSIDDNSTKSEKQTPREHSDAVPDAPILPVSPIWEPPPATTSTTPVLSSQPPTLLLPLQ
Description: Binding of B7H6/CD3 binding proteins to HCT-15, a human (colo-rectal cancer) CRC cell line was tested by flow cytometry. In a previous experiment, it has been confirmed that HCT-15 cells expresses B7-H6 on the RNA levels as well as the protein level with approximately 8,000 B7-H6 receptors on the cell surface (data not shown). B7H6/CD3 binding proteins were produced, as described in Example 2. HCT-15 cells were stained with increasing concentrations of two-step purified B7H6/CD3 binding proteins in FACS buffer (PBS/0.5% BSA/0.05% sodium azide). Bound molecules were detected with PE-conjugated anti-human secondary antibody (Sigma-Aldrich, #P8047).

[3] = target: T2, human B7H6 on HCT-15 cells; test: cell-based or functional assay

B1: B7H6#10/CD3#1 (bispecific antibody, human IgG1, kappa, lambda, L234A L235A)
chain 1: DIQMTQSPSSVSASVGDRVTITCRASQGISSWLAWYQQKPGKAPKLLIYVASSLQRGVPSRFSGSGSGTDFTLTISNLQPEDFATYYCQQANSFPRTFGQGTKVEIKRTVAAPSVFIFPPSDEQLKSGTASVVCLLNNFYPREAKVQWKVDNALQSGNSQESVTEQDSKDSTYSLSSTLTLSKADYEKHKVYACEVTHQGLSSPVTKSFNRGECGGGGSEGKSSGSGSESKSTEGKSSGSGSESKSTGGGGSQVHLQESGPGLVKPSETLSLTCTVSGDSISSYYWSWIRQPAGKGLEWIGHIYTSEKNNYNPSLKSRVIMSVDTSKNQFSLNLSSVTAADTAVYYCARVGNWGSHDAWGQGTLVTVSSASTKGPSVFPLAPSSKSTSGGTAALGCLVKDYFPEPVTVSWNSGALTSGVHTFPAVLQSSGLYSLSSVVTVPSSSLGTQTYICNVNHKPSNTKVDKRVEPKSCDKTHTCPPCPAPEAAGGPSVFLFPPKPKDTLMISRTPEVTCVVVDVSHEDPEVKFNWYVDGVEVHNAKTKPREEQYNSTYRVVSVLTVLHQDWLNGKEYKCKVSNKALPAPIEKTISKAKGQPREPQVYTLPPSREEMTKNQVSLWCLVKGFYPSDIAVEWESNGQPENNYKTTPPVLDSDGSFFLYSKLTVDKSRWQQGNVFSCSVMHEALHNHYTQKSLSLSPG
chain 2: EAVVTQEPSLTVSPGGTVTLTCRSSTGAVTTSNYANWVQEKPGQLPRGLIGGTNKRAPWVPARFSGSLLGGKAALTLSGAQPEDEAEYFCALWYSNLWVFGGGTKLTVLGQPKAAPSVTLFPPSSEELQANKATLVCLISDFYPGAVKVAWKADGSPVNTGVETTTPSKQSNNKYAASSYLSLTPEQWKSHRSYSCQVTHEGSTVEKTVAPAECSGGGGSEGKSSGSGSESKSTEGKSSGSGSESKSTGGGGSEVQLVESGGGLVQPGGSLKLSCAASGFTFNTYAMNWVRQAPGKGLEWVARIRSKYNNYATYYADSVKDRFTISRDDSKNTAYLQMNNLKTEDTAVYYCVRHGNFGNSYVSWFAYWGQGTLVTVSAASTKGPSVFPLAPSSKSTSGGTAALGCLVKDYFPEPVTVSWNSGALTSGVHTFPAVLQSSGLYSLSSVVTVPSSSLGTQTYICNVNHKPSNTKVDKRVEPKSCDKTHTCPPCPAPEAAGGPSVFLFPPKPKDTLMISRTPEVTCVVVDVSHEDPEVKFNWYVDGVEVHNAKTKPREEQYNSTYRVVSVLTVLHQDWLNGKEYKCKVSNKALPAPIEKTISKAKGQPREPQVYTLPPSREEMTKNQVSLSCAVKGFYPSDIAVEWESNGQPENNYKTTPPVLDSDGSFFLVSKLTVDKSRWQQGNVFSCSVMHEALHNRFTQKSLSLSPG
notes: scFab-Fc heterodimer, one B7H6 chain and one CD3 chain
EC50 (read off the curve) [1]: ~0.05 µg/mL
EC50 (read off the curve) [2]: ~0.9 nM
EC50 [nM], 72 hour cytotoxicity assay, non-stimulated T-cells (Donor #1) as effector cells, HCT-15 cells as target cells [3]: 0.53 nM

B2: B7H6#7/CD3#1 (bispecific antibody, human IgG1, kappa, lambda, L234A L235A)
chain 1: DIQMTQSPSSVSASVGDRVTITCRASQGISSWLAWYQQKPGKAPNLLIYAASSLQSGVPSRFSGSGSGTDFTLTISSLQPEDFATYYCQQANSFPRTFGQGTKVEIKRTVAAPSVFIFPPSDEQLKSGTASVVCLLNNFYPREAKVQWKVDNALQSGNSQESVTEQDSKDSTYSLSSTLTLSKADYEKHKVYACEVTHQGLSSPVTKSFNRGECGGGGSEGKSSGSGSESKSTEGKSSGSGSESKSTGGGGSQVQLQESGPGLVKPSETLSLTYTVSGGSISYNYWSWIRQPPEKGLEWIGHIYYSGSTNYNPSLKSRVTISVDTSKNQFSLKLNSVTAADTAVYYCARVGTWGSFDDWGQGTLVTVSSASTKGPSVFPLAPSSKSTSGGTAALGCLVKDYFPEPVTVSWNSGALTSGVHTFPAVLQSSGLYSLSSVVTVPSSSLGTQTYICNVNHKPSNTKVDKRVEPKSCDKTHTCPPCPAPEAAGGPSVFLFPPKPKDTLMISRTPEVTCVVVDVSHEDPEVKFNWYVDGVEVHNAKTKPREEQYNSTYRVVSVLTVLHQDWLNGKEYKCKVSNKALPAPIEKTISKAKGQPREPQVYTLPPSREEMTKNQVSLWCLVKGFYPSDIAVEWESNGQPENNYKTTPPVLDSDGSFFLYSKLTVDKSRWQQGNVFSCSVMHEALHNHYTQKSLSLSPG
chain 2: B1 chain 2
notes: as for B1
EC50 (read off the curve) [1]: ~0.05 µg/mL
EC50 (read off the curve) [2]: ~1 nM
EC50 [nM], 72 hour cytotoxicity assay, non-stimulated T-cells (Donor #1) as effector cells, HCT-15 cells as target cells [3]: 0.36 nM
